Like-named read-outs stand apart in the source and are kept apart here. Each block holds one binder with its values, some of them ahead of it.
Experiments:
[1] = target: T1, WT rat sGC heme free (tween treated) (rat, UniProt P19686 1-690; P20595 1-619); assay: SPR
T1 construct: alpha1-StrepII/beta1 heterodimer made in Sf9 cells and purified; The heme was removed with 0.5% Tween20 for 20 min at 37 C; It has the same polypeptides as the heme-loaded form and differs only in lacking the heme; also called heme free sGC (as obtained by tween treatment); heme free version of wt rat sGC; not shown: C-terminal strep-tag (StrepII)
T1 sequence (looked up) 1: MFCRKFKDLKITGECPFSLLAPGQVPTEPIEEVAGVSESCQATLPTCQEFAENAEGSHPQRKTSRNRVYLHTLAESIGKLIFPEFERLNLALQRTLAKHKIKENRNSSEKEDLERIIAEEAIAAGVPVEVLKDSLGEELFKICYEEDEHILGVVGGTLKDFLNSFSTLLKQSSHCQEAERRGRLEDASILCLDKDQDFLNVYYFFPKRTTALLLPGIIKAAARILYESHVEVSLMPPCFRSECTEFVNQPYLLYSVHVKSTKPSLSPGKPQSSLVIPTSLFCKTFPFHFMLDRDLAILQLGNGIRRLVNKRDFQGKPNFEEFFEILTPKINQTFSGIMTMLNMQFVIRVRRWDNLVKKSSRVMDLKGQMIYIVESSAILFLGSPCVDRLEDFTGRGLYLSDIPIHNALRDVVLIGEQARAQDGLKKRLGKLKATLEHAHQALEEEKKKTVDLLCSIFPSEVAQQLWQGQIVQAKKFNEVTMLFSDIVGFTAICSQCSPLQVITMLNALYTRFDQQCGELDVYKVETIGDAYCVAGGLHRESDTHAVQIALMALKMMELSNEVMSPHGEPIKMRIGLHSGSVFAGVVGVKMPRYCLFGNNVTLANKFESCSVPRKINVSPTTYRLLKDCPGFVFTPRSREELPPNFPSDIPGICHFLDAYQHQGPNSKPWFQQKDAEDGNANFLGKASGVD
T1 sequence (looked up) 2: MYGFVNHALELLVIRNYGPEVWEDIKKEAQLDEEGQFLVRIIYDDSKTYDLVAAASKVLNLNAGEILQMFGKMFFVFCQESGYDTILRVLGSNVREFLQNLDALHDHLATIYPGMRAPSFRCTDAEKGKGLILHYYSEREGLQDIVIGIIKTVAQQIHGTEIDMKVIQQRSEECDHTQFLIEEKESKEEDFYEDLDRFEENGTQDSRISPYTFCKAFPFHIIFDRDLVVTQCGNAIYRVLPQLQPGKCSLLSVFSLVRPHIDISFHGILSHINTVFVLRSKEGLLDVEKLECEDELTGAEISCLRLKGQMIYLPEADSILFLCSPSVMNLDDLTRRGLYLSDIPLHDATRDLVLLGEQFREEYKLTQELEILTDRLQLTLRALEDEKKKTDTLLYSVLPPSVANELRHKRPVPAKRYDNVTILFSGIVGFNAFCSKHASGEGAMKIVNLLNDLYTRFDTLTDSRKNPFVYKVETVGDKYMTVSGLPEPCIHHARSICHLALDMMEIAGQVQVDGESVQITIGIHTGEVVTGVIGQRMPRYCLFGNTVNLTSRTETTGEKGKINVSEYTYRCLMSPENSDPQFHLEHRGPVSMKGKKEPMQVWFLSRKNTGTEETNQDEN

[2] = target: T1, WT rat sGC heme free (tween treated); assay: capture ELISA: IgG coated at 5 ug/mL, tween-treated (heme-free) WT rat sGC titrated, streptavidin-HRP, OD 450 nm; the axis gives the sGC concentration
Method: (§1) To determine by ELISA the capacity of individual IgGs to discriminate the apo (heme free) version of wt rat sGC from the heme-loaded version, 5 μg/mL of each individual IgG were coated in Nunc® maxisorp 96-well plates overnight at 4° C. After a minimum 16 hours adsorption period, coated maxisorp plates were blocked with PBS-3% skimmed milk (v/v) prior to the addition of purified rat wt sGC proteins previously treated with 0.5% (v/v) tween to remove the heme group, or not-treated thus preserving heme group. Successful entrapment of heme free or heme-loaded wt rat sGC molecules by reformatted IgG molecules was detected with streptavidin-HRP.

[3] = target: T1, WT rat sGC heme free (tween treated); assay: as above; remark: listed apart in the source
Method: as §1

[4] = target: Human apo-sGC (H105F) (human) (UniProt Q02108); assay: SPR
[5] = target: rat apo-sGC (H105F) (rat) (UniProt P19686); assay: SPR
[6] = target: rat apo-sGC (H105F) (rat) (UniProt P19686); assay: capture ELISA: IgG coated at 5 ug/mL, rat apo-sGC (H105F) titrated, streptavidin-HRP, OD 450 nm; the axis gives the sGC concentration

Sequence of Human apo-sGC (H105F) (human) (Q02108 whole entry, stated change not applied): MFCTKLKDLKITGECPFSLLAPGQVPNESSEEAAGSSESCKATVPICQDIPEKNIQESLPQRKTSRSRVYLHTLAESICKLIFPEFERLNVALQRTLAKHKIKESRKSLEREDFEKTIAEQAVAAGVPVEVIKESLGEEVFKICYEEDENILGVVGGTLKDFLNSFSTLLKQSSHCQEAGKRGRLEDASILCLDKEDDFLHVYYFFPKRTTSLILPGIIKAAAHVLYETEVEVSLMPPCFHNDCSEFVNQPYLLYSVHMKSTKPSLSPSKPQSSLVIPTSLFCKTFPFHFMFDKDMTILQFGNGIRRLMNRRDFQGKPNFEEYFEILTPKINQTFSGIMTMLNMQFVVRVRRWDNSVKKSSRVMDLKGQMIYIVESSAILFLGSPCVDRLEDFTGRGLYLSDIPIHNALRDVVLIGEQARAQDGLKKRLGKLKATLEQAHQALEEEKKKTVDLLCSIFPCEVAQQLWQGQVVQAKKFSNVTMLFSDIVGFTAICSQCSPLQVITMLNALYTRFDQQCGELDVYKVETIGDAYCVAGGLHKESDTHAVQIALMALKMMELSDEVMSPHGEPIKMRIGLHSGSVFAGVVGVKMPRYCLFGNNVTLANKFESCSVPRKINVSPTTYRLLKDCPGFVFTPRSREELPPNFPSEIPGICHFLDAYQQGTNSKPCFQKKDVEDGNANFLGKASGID

- Kd [1]: 50 nM
- EC50 (read off the curve) [2]: ~50 nM
- EC50 (read off the curve) [3]: ~20 nM
B1: TPP15715 (antibody, human IgG1, lambda, V domains shown)
VH: EVQLLESGGGLVQPGGSLRLSCAASGFTFSNYAMSWVRQAPGKGLEWVSAISGSGGSTFYADSVKGRFTISRDNSKNTLYLQMNSLRAEDTAVYYCATDGTDAFDIWGQGTLVTVSS
VL: QSVLTQPPSASGTPGQRVTISCTGSSSNIGAGYDVHWYQQLPGTAPKLLIYENDRRPSGVPDRFSGSKSGTSASLAISGLRSEDEADYYCAAWDDSLNGPLFGGGTKLTVLG
notes: also called 5H10; TPP15715_5H10

- Kd [4]: 146 nM
- Kd [5]: 67 nM
- EC50 (read off the curve) [6]: 70 nM
B2: TPP16284 (antibody, human IgG1, lambda, V domains shown)
VH: EVQLLESGGGLVQPGGSLRLSCAASGFTFSSYAMSWVRQAPGKGLEWVSGVSWNGSRTHYADSVKGRFTISRDNSKNTLYLQMNSLRAEDTAVYYCARERLGKWYFDLWGRGTLVTVSS
VL: QSVLTQPPSASGTPGQRVTISCSGSSSNIGNNAVNWYQQLPGTAPKLLIYGNSNRPSGVPDRFSGSKSGTSASLAISGLRSEDEADYYCQSYDSSLSGVFGGGTKLTVLG
